Patent US20070148201A1 (Pieris, published 2007)
Values belong to the binder of their own block, whether it stands above or below them.

How the values were obtained:
type I horse ferritin [1] = target: T1, type I horse ferritin (horse, UniProt P02791 2-175; Q8MIP0 2-182, limits assumed); test: ELISA, ferritin coated on plate, mutein titrated from 1000 nM, anti-T7-HRP detection, apparent KD from curve fit
T1 construct: the natural protein is a shell of light and heavy chains
Procedure: (§1) Afterwards, the wells were washed and blocked as described in Example 8.
(§2) Then, a dilution series of the BBP muteins from Example 11 in SA-buffer was prepared in PBST starting from 1000 nM concentration and incubated for 1 h at room temperature. Subsequently, plates were washed again five times, anti-T7 monoclonal antibody-HRP-conjugate was added and incubated for 1 hour at room temperature followed by washing and addition of fluorogenic HRP-substrate QuantaBlu™ as described in Example 8. After 10 minutes at room temperature fluorescence was excited at a wavelength of 320 nm (±12.5 nm) and measured at 430 nm (±17.5 nm) in a GENiosPlus plate reader.
The resulting binding curves were fitted by non-linear least squares regression as described in Example 8 and are depicted in FIG. 8. The values obtained for the apparent dissociation constants of the complexes between the BBP muteins and the prescribed target ferritin are summarized in Table 5.

RNaseB [2] = target: T2, RNaseB (UniProt P61823 27-150); test: ELISA: RNaseB coated on the plate as control, BBP mutein titrated 0-1000 nM, detected with anti-T7 antibody-HRP, fluorescence (Example 12)
T2 construct: also called unrelated control protein RNaseB
T2 sequence (looked up): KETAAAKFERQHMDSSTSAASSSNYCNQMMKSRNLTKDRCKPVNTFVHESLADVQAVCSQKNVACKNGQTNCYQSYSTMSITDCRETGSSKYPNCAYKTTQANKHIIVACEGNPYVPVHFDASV
Procedure: as §1, §2

type I horse ferritin [3] = target: T1, type I horse ferritin; test: high-throughput ELISA screening, crude cell extract, ferritin or aldolase coated on plate, anti-T7-HRP detection; Fer-P4 is one of the clones taken on from these 14
Procedure: (§3) For the detection of binding, these cell extracts were tested for their reactivity on the prescribed target type I horse ferri tin as well as the unrelated control protein aldolase in ELISA experiments. Therefore, wells of black Fluotrac 600 ELISA plates (Greiner; 384 well) were coated overnight with 20 μl of a solution of ferritin (Sigma) or aldolase (Roche) at 4° C., each at a concentration of 20 μg/ml in PBS. Plates were washed five times with 100 μl PBST/0.05 per well with an automated ELISA plate washer (Molecular Devices) leaving a residual volume of 10 μl of the washing buffer in each well after the last washing step. Residual binding sites were blocked by incubation with 100 μl PBST/0.05 containing 2% w/v BSA for 2 h at room temperature. Afterwards, plates were again washed five times as described above.
(§4) For complex formation between the BBP muteins and the immobilized proteins, the wells were incubated with 10 μl of the blocked cell extract from above for 1 hour at room temperature. […] After 60 minutes at room temperature fluorescence was excited at a wavelength of 320 nm (±12.5 nm) and measured at 430 nm (±17.5 nm) in a GENiosPlus plate reader (Tecan).

RNaseB [4] = target: T2, RNaseB; test: ELISA, RNaseB coated on plate, anti-T7-HRP detection
Procedure: as §1, §2

type I horse ferritin [5] = target: T1, type I horse ferritin; test: high-throughput ELISA screening, crude cell extract, ferritin or aldolase coated on plate, anti-T7-HRP detection; Fer-O20 is one of the clones taken on from these 14
Procedure: as §3, §4

type I horse ferritin [6] = target: T1, type I horse ferritin; test: high-throughput ELISA screening, crude cell extract, ferritin or aldolase coated on plate, anti-T7-HRP detection; Fer-N21 is one of the clones taken on from these 14
Procedure: as §3, §4

[7] = target: T3, extracellular domain of human CD47 (amino acids 1 to 119 of the mature protein, Cys15 to Ala) with Strep-tag … (human, UniProt Q08722 19-139); test: ELISA, CD47 coated on plate, mutein titrated from 2000 nM, anti-T7-HRP detection, apparent KD from curve fit
T3 construct: Produced in the periplasm of E. coli JM83, purified by the Strep-tag II; 1-119 counts on the mature CD47; also called recombinant CD47
T3 sequence (Q08722 other isoform, or with tags, fused parts or gaps limits assumed): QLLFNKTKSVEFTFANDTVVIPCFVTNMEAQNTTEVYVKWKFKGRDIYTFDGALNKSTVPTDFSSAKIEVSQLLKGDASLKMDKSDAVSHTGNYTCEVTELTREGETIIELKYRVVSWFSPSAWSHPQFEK
Procedure: For the detection of binding in an ELISA the wells of a black Fluotrac 600 microtiter plate (Greiner; 384 well) were filled each with 20 μl of a solution of the intended recombinant protein target CD47 (produced as described in Example 2) or the unrelated control protein BSA both at a concentration of 50 μg/ml in PBS and were incubated for 1 h at ambient temperature. After washing five times with 100 μl PBST/0.05 per well employing an automated ELISA plate washer, the wells were filled with 100 μl PBST/0.05 3% w/v non-fat dry milk powder (Vitalia), in order to saturate unspecific binding sites and incubated for one hour at room temperature. After blocking, the microtiter plate was washed two times with 100 μl PBST/0.05 as described above.
Then a dilution series of the muteins in SA-buffer from Example 7 was prepared in PBST starting from 2000 nM concentration and incubated for 1 h at room temperature. Subsequently, plates were washed again five times like above and 20 μl of an anti-T7 monoclonal antibody-HRP-conjugate, diluted 1:1000 in PBST, was added to each well and incubated for 1 hour at room temperature. […] After 10 minutes at room temperature fluorescence was excited at a wavelength of 320 nm (±12.5 nm) and measured at 430 nm (±17.5 nm) in a GENiosPlus plate reader. […]

type I horse ferritin [8] = target: T1, type I horse ferritin; test: high-throughput ELISA screening, crude cell extract, ferritin or aldolase coated on plate, anti-T7-HRP detection; Fer-D24 is one of the clones taken on from these 14
Procedure: as §3, §4

T1 sequence (P02791 2-175 limits assumed, chain 1 of 2): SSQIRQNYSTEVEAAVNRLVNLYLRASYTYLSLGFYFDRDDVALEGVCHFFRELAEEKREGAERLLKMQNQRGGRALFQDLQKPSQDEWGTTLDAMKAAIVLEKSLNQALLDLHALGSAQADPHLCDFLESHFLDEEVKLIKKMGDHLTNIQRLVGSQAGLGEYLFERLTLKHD
T1 sequence (Q8MIP0 2-182 limits assumed, chain 2 of 2): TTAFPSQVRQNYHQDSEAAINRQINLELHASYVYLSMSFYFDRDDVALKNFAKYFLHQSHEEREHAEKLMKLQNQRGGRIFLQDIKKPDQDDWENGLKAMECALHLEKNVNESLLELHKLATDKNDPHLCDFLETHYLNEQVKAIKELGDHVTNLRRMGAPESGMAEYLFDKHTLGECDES

Kd (type I horse ferritin [1]): 31 nM | binding result (RNaseB [2]): no binding (tested: 1000 nM) | signal-to-control ratio (ferritin against aldolase) (type I horse ferritin [3]): > 5
B1: BBP mutein Fer-P4 (designed binder)
chain: DVYHDGACPEVKPVDNFDWSQYHGKWWEVAKYPSKGGEKGKCGWAEYTPEGKSVKVSRYDVILSSEPFMEGTAYPVGDSKIGKIYHSRTKKGETKKTVFNVLSTDNKNYIIGYSCGYCECRKGHADHVWVLSRSMVLTGEAKTAVENYLIGSPVVDSQKLVYSDFSEAACKVNN
notes: Tested as expressed from pBBP47: C-terminal T7 tag followed by Strep-tag II

Kd (type I horse ferritin [1]): 49 nM | signal-to-control ratio (ferritin against aldolase) (type I horse ferritin [5]): > 5
B2: BBP mutein Fer-O20 (designed binder)
chain: DVYHDGACPEVKPVDNFDWSQYHGKWWEVAKCPSGKGRAGKCGWAEFTPEGKSVKVSRYDVIPAPELFMEGTAYPVGDPKIGKIYHSRTNKGLTKKTVFNVLSTDNKNYIIGYSCKYGEDQKGHKDHVWVLSRSMVLTGEAKTAVENYLIGSPVVDSQKLVYSDFSEAACKVNN
notes: as for B1
binding result (RNaseB [4]): no binding (tested: dilution series starting from 1000 nM)

Second part, the binder before the results:

B3: BBP mutein Fer-N21 (designed binder)
chain: DVYHDGACPEVKPVDNFDWSQYHGKWWEVAKYPSNRGSKGKCGWAEYTPEGKSVKVSRYDVIPRLEAFMEGTAYPVGDSKIGKIYHSRTSKGKTKKTVFNVLSTDNKNYIIGYSCIYNERYKGHYDHVWVLSRSMVLTGEAKTAVENYLIGSPVVDSQKLVYSDFSEAACKVNN
notes: as for B1
signal-to-control ratio (ferritin against aldolase) (type I horse ferritin [6]): > 5 | Kd (type I horse ferritin [1]): 29 nM | binding result (RNaseB [4]): no binding (tested: dilution series starting from 1000 nM)

B4: BBP mutein CD47-G6 (designed binder)
chain: DVYHDGACPEVKPVDNFDWSQYHGKWWEVAKYPNRREKFGKCGWAEYTPEGKSVKVSNYHVIRWGERFIEGTAYPVGDSKIGKIYHSLTLPGYTKENVFNVLSTDNKNYIIGYYCKYLERLKGHADFVWVLSRSMVLTGEAKTAVENYLIGSPVVDSQKLVYSDFSEAACKVNN
Kd [7]: 33 nM

B5: BBP mutein Fer-D24 (designed binder)
chain: DVYHDGACPEVKPVDNFDWSQYHGKWWEVAKYPSKKGKQGKCGWAEYTPEGKSVKVSRYDVIPCLESFMEGTAYPVGDSKIGKIYHSRTKPGRTKKTVFNVPSTDNKNYIIGYSCVYPEGRKGHRDHVWVLSRSMVLTGEAKTAVENYLIGSPVVDSQKLVYSDFSEAACKVNN
notes: Tested only in the screening ELISA (crude extract, pBBP47: C-terminal T7 tag and Strep-tag II); KD not given
signal-to-control ratio (ferritin against aldolase) (type I horse ferritin [8]): > 5
